From publication PMC11143254, “Cryo-EM structure of cadmium-bound human ABCB6” (Communications Biology, 2024)

Molecular target: the molecule itself
Test: cryo-EM structure; nanodisc-reconstituted hABCB6^core (0.5 mg/mL) incubated with 800 uM CdCl2 and 1 mM GSH (or PC2) at 4 °C for 30 min; C2 symmetry; inward-facing homodimer

B1: human ABCB6 core region lacking TMD0 (hABCB6^core) (domain or fragment, UniProt Q9NP58 206-842, looked up)
chain: APGLRPQSYTLQVHEEDQDVERSQVRSAAQQSTWRDFGRKLRLLSGYLWPRGSPALQLVVLICLGLMGLERALNVLVPIFYRNIVNLLTEKAPWNSLAWTVTSYVFLKFLQGGGTGSTGFVSNLRTFLWIRVQQFTSRRVELLIFSHLHELSLRWHLGRRTGEVLRIADRGTSSVTGLLSYLVFNVIPTLADIIIGIIYFSMFFNAWFGLIVFLCMSLYLTLTIVVTEWRTKFRRAMNTQENATRARAVDSLLNFETVKYYNAESYEVERYREAIIKYQGLEWKSSASLVLLNQTQNLVIGLGLLAGSLLCAYFVTEQKLQVGDYVLFGTYIIQLYMPLNWFGTYYRMIQTNFIDMENMFDLLKEETEVKDLPGAGPLRFQKGRIEFENVHFSYADGRETLQDVSFTVMPGQTLALVGPSGAGKSTILRLLFRFYDISSGCIRIDGQDISQVTQASLRSHIGVVPQDTVLFNDTIADNIRYGRVTAGNDEVEAAAQAAGIHDAIMAFPEGYRTQVGERGLKLSGGEKQRVAIARTILKAPGIILLDEATSALDTSNERAIQASLAKVCANRTTIVVAHRLSTVVNADQILVIKDGCIVERGRHEALLSRGGVYADMWQLQQGQEETSEDTKPQTMER
notes: human ABCB6, core region lacking the N-terminal TMD0, residues 206-842, codon-optimized synthetic gene; Homodimeric half-transporter; The C-terminal tag (thrombin site, eGFP, 10xHis) was removed by thrombin; residues of the cleavage site may remain; Modelled residues exclude the extreme N-terminus and residues 827-842; not shown: eGFP, C-terminal, cleaved; 10xHis, C-terminal, cleaved
stoichiometry N: 2
